Where a chain is given by its changes, count along the chain named. Names may count otherwise.
B1: S1HPPDm-F372G: Solanum lycopersicum HPPD mutant F372G, SEQ ID NO: 331 (protein)
chain: MGKQAAAAADDQQLPGDIEDKFKLVGFNHFVRTNPRSDFFTVKRFHHIEFWCGDATNTARRFSWGLGLPIAAISDLSTGNSVHASYLLRSSSSSQLQFLFTAPYSSAISTSSSASIPTFSVSSHRSFTATHGLGVRAIALEVENSRLAFSTCVAHGAKPVSEPVILNDEVVIAEVHLYGDVVLRFVSFLKDSNCFVFLPGFESVEGAQLDYGIRRLDHAVGNVPELGPVVEYIKSFTGFHEFAEFTAEDVGTAESGLNSVVLANNDETVLFPLNEPVYGTKRKSQIQTYLEHNEGAGVQHLALVTEDIFRTLREMRKRSGIGGFEFMPSPPPTYYKNLKTRAGDILSDEQIQECEELGILVDRDDQGTLLQIGTKPVGDRPTIFLEIIQRIGCMLKNEEGELYQKGGCGGFGKGNFSELFKSIEEYEKTLEAKQNTQVAIA
modifications: SlHPPDm-F372G Amino Acid Sequence
B2: AhHPPDm-F372G: Arachis hypogaea HPPD mutant F372G, SEQ ID NO: 333 (protein)
chain: MATAYTYAHAVTYCNSQHNPPIIPILSTNQHPPRVTLPSSIPHFISTITTFNLKHFPSHSLHTVMVTQTQQNAPSSSPELGFKLVGFKNFVRTNPKSDRFKVIRFHHVEFWCTDATNTASRFSWGLGMPIVAKSDLSTGNAVHASYLLRSGDLNFLFSAPYSASIAGDGASASFPSFSASDCHSFAAKHGLAVRAVAIEVEDASAAFSASVANGAKPVSPAVLLDNSVGFAEVHLYGDVVLRYISYSAPTRESNLNPTLRFLPGFEAVEADSSFPELDYGIRRLDHAVGNVPELAPAVNYLKKFTGFHEFAEFTAEDVGTSESGLNSVVLASNDEMVLLPLNEPVYGTKRKSQIETYLEHNEGAGLQHLALVSEDIFRTLREMRKRSTIGGFQFMPSPPPTYYRNLKKRAGDVLSDEQIKECEELGILVDRDDQGTLLQIGTKPVGDRPTIFIEIIQRIGCMLKDEEGKVYQKGGCGGFGKGNFSELFKSIEEYEKTLESRRTA
modifications: AhHPPDm-F372G Amino Acid Sequence
B3: CyHPPDm-F372G: Cyanobacteria HPPD mutant F372G, SEQ ID NO: 335 (protein)
chain: MEFDYLHLYVDDYQSAHRCYQRQWGFTCVNKIITDQGITGIYQQGQILLLISASESSLSRYADYLQKHPPGVGEVAWQVANWQKIQHQLSELQIETTPVIHPLTKAEGLTFLLWGDVHHSIYPVRSELNQNKTLHGVGLTTIDHVVLNIAADQFTQASQWYQQVFGWSVQQSFTVNTPHSGLYSEALASANGKVQFNLNCPTNNSSQIQTFLANNHGAGIQHVAFSTTSITRTVAHLRERGVNFLKIPTGYYQQQRNSSYFNYASLDWDTLQCLEILLDDQDNTGERLLLQIGSQPCYGVGTLFWEIIERRHRAKGFGQGNFQALYEAVETLEKQLEVP
modifications: CyHPPDm-F372G Amino Acid Sequence
B4: N1HPPDm-F372G: Sphingobium sp. N1 HPPD mutant F372G, SEQ ID NO: 337 (protein)
chain: MAADSENPLGLHGFAFAEFTSPDPAAMARQFEQLGFVPAARRKDRGLTLYRQGRIAFILNAGEGEQASAFRAAHGPSANGMAFNVADAKAAHRHAIQSGATDADTAQSALPGTYAIEGIGDSLLYLVDSDPFADWDEVPGWREASAERGVGLDLLDHLTHNVRRGQMRVWSEFYATLFGFEEQKFFDIKGQATGLFSQAMIAPDHEIRIPLNESQDDNSQIEEFIREYNGEGIQHLALTTPDIYSTVEKLRANGVRLQDTIDTYYDLVDERVPGHGEDLARLRKNRILIDGDVHDEGLLLQIGTETMFGPIFFEIIQRKGNEGFGNGNFQVLYESIELDQIRRGVVTVDA
modifications: N1HPPDm-F372G Amino Acid Sequence
B5: N2HPPDm-F372G: Sphingobium sp. N2 HPPD mutant F372G, SEQ ID NO: 339 (protein)
chain: MTLFDNPLGLDGFEFVEFSAPAKGMLEPVFAAMGFVMIARHRSKDVQLWRQGGINLIANYEPRSPAAYFAAEHGPSACGMGWRVRNAAKAYELAVERGAEPVDVKTGPMELRLPAIRGIGGSIIYLIDRYEDEDGGLSIYDIDFVYEPGVDRHPEGAGFKIIDHLTHNVYGGRMAHWASFYERVFGFREIRYFDIKGEYTGLTSKAMTAPDGKIRIPLNEEGKAGGGQIEEFLRAYNGEGIQHIAFLCDDLIAAWDKLKALGTPLMTAPPATYYEMLDERLPGHGEPVAELQKRGILLDGSTQQGDPRLLLQIGGQATIGPVFFEFIQRKKDEGFGEGNFTALFESMERDQLRRGTLNAGESA
modifications: N2HPPDm-F372G Amino Acid Sequence
B6: ZmHPPDm-F372G: Zea mays HPPD mutant F372G, SEQ ID NO: 295 (protein)
chain: MPPTPTAAAAGAAVAAASAAEQAAFRLVGHRNFVRFNPRSDRFHTLAFHHVELWCADAASAAGRFSFGLGAPLAARSDLSTGNSAHASLLLRSGSLSFLFTAPYAHGADAATAALPSFSAAAARRFAADHGLAVRAVALRVADAEEAFRTSVAAGARPAFGPVDLGRGFRLAEVELYGDVVLRYVSYPDGAAGEPFLPGFEGVASPGAADYGLSRFDHIVGNVPELAPAAAYFAGFTGFHEFAEFTTEDVGTAESGLNSMVLANNSENVLLPLNEPVHGTKRRSQIQTFLDHHGGPGVQHMALASDDVLRTLREMQARSAMGGFEFMAPPTSDYYDGVRRRAGDVLTEAQIKECQELGVLVDRDDQGVLLQIGPKPVGDRPTLFLEIIQRIGCMERDEKGQEYQKGGCGGFGKGNFSQLFKSIEDYEKSLEAMQAAAAATAQGS
modifications: ZmHPPDm-F372G Amino Acid Sequence
B7: N3HPPDm-F372G: Burkholderia sp. N3 HPPD mutant F372G, SEQ ID NO: 341 (protein)
chain: MQIPNWENPVGTDGFEFIEYTAPDPKALGQLFERMGFTAIARHRHKDVTVYRQGDINFIINAEPHSFAQRFARLHGPSICAIAFRVQDAAKAYQHALELGAWGFDNKTGPMELNIPAIKGIGDSLIYFVDRWRGKNGAQPGAIGDISIYDVDFEPIAGANPNPAGHGLTYIDHLTHNVHRGRMQEWAEFYERLFNFREVRYFDIEGKVTGVKSKAMTSPCGKIRIPINEEGSDTAGQIQEYLDAYHGEGIQHIALGTNDIYGAVDGLRGKEVKLLDTIDTYYELVDRRVPDHGESLDELKKRKILIDGARDDLLLQIGTENQIGPIFFEIIQRKGNQGFGEGNFKALFESIELDQIRRGVVQDKA
modifications: N3HPPDm-F372G Amino Acid Sequence
B8: N4HPPDm-F372G: Burkholderia sp. N4 HPPD mutant F372G, SEQ ID NO: 343 (protein)
chain: B7 chain with H65D, N160T, N258S, N343T
modifications: N4HPPDm-F372G Amino Acid Sequence
B9: GsHPPDm-F372G: Gossypium hirsutum HPPD mutant F372G, SEQ ID NO: 299 (protein)
chain: MVQTNQSGSGNDFKLVGFSNFVRSNPKSDRFTVKRFHHIEFWCTDATNVARRFSWGLGMQFVAKSDLSTGNLTHASYLLRSRDLNFLFTAPYSPSIAVAQNLSPQSTASIPSFDHSLCRSFAATHGLGVRAIAIEVDDAETAFTTSVTHGALPFCPPTPLGDVATIAEVKLYGDVVLRYVSYTTTINSDHDFLPGFEKIEDTLSYPLDYGLRRLDHAVGNVPELGPAVSYVKSFTGFHEFAEFTAEDVGTSESGLNSVVLANNEEMVLLPMNEPVFGTKRKSQIQTYLEHNEGAGVQHLALVSEDIFKTLREMRKRSFVGGFEFMPSPPPTYYKKLKQRAGDILSDEQIKECEELGILVDRDDQGTLLQIGTKPVGDRPTIFIEIIQRIGCMVKDEEGKQYQKGGCGGFGKGNFSELFKSIEEYEKSLEAKQSQNP
modifications: GsHPPDm-F372G Amino Acid Sequence
B10: TaHPPDm-F372G: Triticum aestivum HPPD mutant F372G, SEQ ID NO: 301 (protein)
chain: MPPTPTTPAATGAGAAAAVTPEHARPRRMVRFNPRSDRFHTLSFHHVEFWCADAASAAGRFAFALGAPLAARSDLSTGNSVHASQLLRSGNLAFLFTAPYANGCDAATASLPSFSADAARRFSADHGLAVRSIALRVADAAEAFRASVDGGARPAFSPVDLGRGFGFAEVELYGDVVLRFVSHPDGTDVPFLPGFEGVSNPGAVDYGLTRFDHVVGNVPELASAAAYVAGFTGFHEFAEFTTEDVGTAESGLNSMVLANNSEGVLLPLNEPVHGTKRRSQIQTFLEHHGGPGVQHIAVASSDVLRTLREMRARSAMGGFDFLPPPLPKYYEGVRRIAGDVLSEAQIKECQELGVLVDRDDQGVLLQIGTKPVGDRPTLFLEMIQRIGCMEKDERGEEYQKGGCGGFGKGNFSELFKSIEDYEKSLEAKQSAAVQGS
modifications: TaHPPDm-F372G Amino Acid Sequence
B11: BdHPPDm-F372V: Brachypodium distachyon HPPD mutant F372V, SEQ ID NO: 355 (protein)
chain: MPPPATTAAPAAAAVTPEHARPPRRVARVNPRSDRFSALSFHHVELWCADAASAAGRFSFALGAPPAARSDLSTGNSAHASILLRSGSLAFLFTAPYAPSPASDSAASIPSFSASAARQFTADHGGLAVRAVALRVSSASDAFHASVSAGARPSFPPADLGQGFALAEVELYGDVVLRFISHPDENTEIPFLPGFESVSNPGASTYGLTRFDHVVGNVPSLAPVAAYIAGFTGFHEFAEFTAEDVGTADSGLNSVVLANNSERVLLPLNEPVHGTKRRSQIQTYLDHHGGPGVQHIALASDDVLRTLREMRARSAMGGFEFLAPPPPNYYDGVRRRAGDVLSEAQIKECQELGVLVDRDDQGVLLQIVTKPVGDRPTLFLEMIQRIGCMEKDEIGQEQQKGGCGGFGKGNFSELFRSIEEYEKSLEAKQSAVVQES
modifications: BdHPPDm-F372V Amino Acid Sequence

System: Arabidopsis thaliana T1 plants
Experiment: Topramezone tolerance of transgenic Arabidopsis thaliana T1 plants (pesticide damage grade by bleached leaf area, score, resistance evaluation)
Format: in vivo
Conditions: topramezone 25 g ai/ha (1x); HPPD F372G mutants, Table 6
In short: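 Eighteen days after sowing, wild-type and HPPD-transgenic T1 Arabidopsis receive a topramezone spray at 1×, 2× or 4× field rate (25–100 g ai/ha) or water. Seven days later each plant is graded by its proportion of bleached leaf area.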

Question: How did the Resistance evaluation turn out when B1 was run?
Answer: Poorly resistant

Question: B2 was tested. Which Resistance evaluation did it give?
Answer: Poorly resistant

Question: How did the Resistance evaluation turn out when B3 was run?
Answer: Moderately resistant

Question: Which Resistance evaluation does the source give for B4 here?
Answer: Highly resistant

Question: For B5, which Resistance evaluation is on record?
Answer: Highly resistant

Question: With B6 as the molecule, how does the Resistance evaluation read?
Answer: Highly resistant

Question: How did the Resistance evaluation turn out when B7 was run?
Answer: Highly resistant

Question: How did the Resistance evaluation turn out when B8 was run?
Answer: Highly resistant

Question: How did the Resistance evaluation turn out when B9 was run?
Answer: Moderately resistant

Question: For B10, which Resistance evaluation is on record?
Answer: Highly resistant

Same assay, conditions: topramezone 25 g ai/ha (1x); HPPD F372V mutants, Table 7

Question: Which Resistance evaluation does the source give for B11 here?
Answer: Highly resistant

Same assay, conditions: topramezone 100 g ai/ha (4x); HPPD F372G mutants, Table 6

Question: For B1, which Resistance evaluation is on record?
Answer: Non-resistant

Question: For B2, which Resistance evaluation is on record?
Answer: Non-resistant

Question: B3 was tested. Which Resistance evaluation did it give?
Answer: Non-resistant

Question: With B4 as the molecule, how does the Resistance evaluation read?
Answer: Highly resistant

Question: How did the Resistance evaluation turn out when B5 was run?
Answer: Highly resistant

Question: How did the Resistance evaluation turn out when B6 was run?
Answer: Moderately resistant

Question: With B7 as the molecule, how does the Resistance evaluation read?
Answer: Highly resistant

Question: How did the Resistance evaluation turn out when B8 was run?
Answer: Highly resistant

Question: With B9 as the molecule, how does the Resistance evaluation read?
Answer: Non-resistant

Question: B10 was tested. Which Resistance evaluation did it give?
Answer: Moderately resistant

Same assay, conditions: topramezone 100 g ai/ha (4x); HPPD F372V mutants, Table 7

Question: For B11, which Resistance evaluation is on record?
Answer: Poorly resistant

From patent US20230212587A1, “Mutant Hydroxyphenylpyruvate Dioxygenase Polypeptide, Encoding Gene Thereof and Use Therefor” (Beijing Dabeinong Biotechnology Co., Ltd., priority 2019, published 2023)
